# B1: TCN-538 (3206_O17) (antibody, V domains shown)
# VH: QITLKESGPTLVKPTQTLTLTCVFSGFSLSITGVRVGWIRQPPGKALEWLALISWDDEKHYSPSLQSRLTITKDTSKNQVVLTMTNLDPVDTATYYCARSTDRGHVLRYFGWMLPGDAFDVWGQGTMVTVSS
# VL: DIVMTQSPDFLPVSLGERATINCKSSQRVLYSSNNKNYLAWYQLKPGQPPKLIIYWASTRESGVPDRFSGSGSGTEFTLTISSLQAEDVAVYYCQQYYSRPYTFGQGTKLEIK
# B2: TCN-539 (5056_A08) (antibody, V domains shown)
# VH: QVQLVESGGGVVQPGRSLRLSCAASEITFITYAMHWVRQAPGKGLEWVALISDDGSNKFYADSVKGRFTISRDNSKNTLYLQMNSLRAEDTAAYYCAREGVYFDSGTYRGYFDYWGQETLVTVSS
# VL: EIVLTQSPATLSLSPGERATLSCRASQSVSSYLAWYQQKPGQAPRLLIYDASNRATGIPARFSGSGSGTDFTLTISSLEPEDFAVYYCQQRSHWPPITFGQGTRLEIK
# B3: TCN-540 (5060_F05) (antibody, V domains shown)
# VH: QVQLVQSGGGVVQPGRSLRLSCAASGFTFSSYAMHWVRQAPGKGLEWVAIISYDGNDQYYTDSVKGRFTISRDSSKVYLQMHRLRPEDTAVYYCAKEFETSGYFHGSFDYWGQGILVTVSS
# VL: QSALTQPASVSGSPGQSITISCTGTSSDVGGYNYVSWYQQHPGKAPKLLIYEVTNWPSGVSNRFSGSKSGNTASLTISGLQAEDEADYYCSSYAGSSTWVFGGGTRVTVL
# B4: TCN-546 (5089_L08) (antibody, V domains shown)
# VH: QVQLQQWGAGLLKPSETLSLTCGVYGGSLSDYYWSWIRQPPGKGLEWIGEINHSGGTNYNPSLKRRVTISVDTSKKQFSLKMNSVTAADTAVYYCARGTDPDTEVYCRAGNCAAFDFWGQGTLVTVSS
# VL: EIVLTQSPGTLSLSPGERATLSCRASHFVIGRAVAWYQQKPGQAPRLLIYGASSRATGIPDRFSGSGSGTDFTLTISRLETEDFAVFYCQHYGSSPRYAFGQGTKLEIK
# B5: TCN-535 (5246_P19) (antibody, V domains shown)
# VH: QVQLVQSGSEVKKPGTSVKVSCTASGSVFTNYGISWVRQAPGQGLEWMGGIIPLFGAAKYAQKFQGRVTITADESTKTVYMELSRLTSKDTAIYFCAKAPRVYEYYFDQWGQGTPVTVSS
# VL: EIVLTQSPGTLSLSPGERATLSCRASQSVSSSQLAWYQQKPGQAPRLIIYGASTRATGIPDRFSGSGSGTDFTLTIGRLEPEDFAVFFCQQYSTSPPTFGQGTKVDFK
# B6: TCN-534 (5249_B02) (antibody, V domains shown)
# VH: QVQLVQSGAEVKKPGSSVKVSCRESGGTFNGYTITWVRQAPGQGLEWMGGIIPMMGTVNYAQKLQGRVTITTDYFTKTAYMDLNNLRSEDTAMYYCVKIRYTGQQLLWGQGTLVTVSS
# VL: DIQMTQSPSTLSASIGDRVTITCRASQSIASWLAWYQQKPGKAPKLLIYEAVNLESGVPSRFSGSGSGTDFTLTISSLQPDDFATYFCQHYGTISQTFGGGTKVEIK
# B7: TCN-536 (5095_N01) (antibody, V domains shown)
# VH: QVQLQQWGAGLLKPSETLSLTCAVYGGSFSVSGYYWSWIRQPPGRGLEWIGEISHGGSTNYNPSLKSRVTISVDTTKNQFSLRLSSVTAADTAVYYCARGTDPDTEVYCRVGNCAAFDYWGQGSLVTVSS
# VL: EIILAQSPGTLSLSPGERATLSCRASQFVSTRSLAWYQQRPGQAPRLLIYGASSRATGIPDRFSGSGSGTDFTLTISRLEPEDFAVYYCQHYGYSPRYAFGQGSKVEIK
# B8: TCN-530 (5248_H10a) (antibody, V domains shown)
# VH: QVQLVQSGAEVRKPGSSVKVSCKASGGPFMSYAIGWVRQAPGQGLEWMGGINPVFGRPHYAQKFQGRVTIATDDSTKTSYMELSSLTSEDTGMYYCASRYSRSSPGTFESWGQGTLVTVSS
# VL: EIVMTQFPATLSVSPGERVTLSCRASQSVSNNLAWYQQKPGQPPRLLIYDASTRATGVPAKFSGTGSGTEFTLSISSLQSEDFAVYYCQQYHNWPPSYSFGLGTKLEIK
# B9: TCN-543 (5081_G23) (antibody, V domains shown)
# VH: QVHLVQSGAEVRKPGDSVKVSCKTSGYTFSTYPVAWVRQVPGQGLEWMGWISTYNGNTNFAQNFQGRVTLTTDTTTNTAYMEVRSLKFDDTAVYYCARVEGSYRDFWNNQNRFDPWGQGTLVTVSS
# VL: SYVLTQPPSVSVAPGQTARISCGGSNIGGKSVHWYQQKPGQAPVLVVYDDSGRPSGIPERFSGSNSGDTATLTISRVEAGDEADYFCQVWDNFGGVFGTGTKVTVL
# Experiments:
# Conditions in all cases: remark: other sources report otherwise
# [1] = target: recombinant soluble homotrimeric HA of A/Egypt/3300-NAMRU3/08 (H5N1) (Influenza A virus A/Egypt/3300-NAMRU3/2008(H5N1)); assay: HA microarray, BCC supernatant
# [2] = target: recombinant soluble homotrimeric HA of A/Netherlands/219/03 (H7N7) (Influenza A virus A/Netherlands/219/03(H7N7)); assay: trimeric HA microarray, transfection supernatant set 5
# [3] = target: recombinant homotrimeric HA A/duck/Yangzhou/02/05 H8N4 (Influenza A virus A/duck/Yangzhou/02/2005(H8N4)); assay: protein microarray, purified IgG, trimeric HA
# [4] = target: recombinant homotrimeric HA A/swine/Ontario/01911-2/99 H4N6 (Influenza A virus A/Swine/Ontario/01911-2/99 (H4N6)); assay: protein microarray, purified IgG, trimeric HA
binder,measurement,setting,value
B1,Trimeric HA Binding: RLU,[1],23600 RLU
same,Trimeric HA Binding: RLU,[2],4370 RLU
B2,Trimeric HA Binding: RLU,[1],11400 RLU
same,Trimeric HA Binding: RLU,[3],124 RLU
same,Trimeric HA Binding: RLU,[2],15700 RLU
B3,Trimeric HA Binding: RLU,[1],1970 RLU
same,Trimeric HA Binding: RLU,[3],318 RLU
same,Trimeric HA Binding: RLU,[4],138 RLU
same,Trimeric HA Binding: RLU,[2],4390 RLU
B4,Trimeric HA Binding: RLU,[3],211 RLU
same,Trimeric HA Binding: RLU,[2],3740 RLU
B5,Trimeric HA Binding: RLU,[1],39400 RLU
B6,Trimeric HA Binding: RLU,[1],41400 RLU
B7,Trimeric HA Binding: RLU,[3],251 RLU
same,Trimeric HA Binding: RLU,[4],126 RLU
B8,Trimeric HA Binding: RLU,[1],30400 RLU
same,Trimeric HA Binding: RLU,[3],158 RLU
same,Trimeric HA Binding: RLU,[4],139 RLU
B9,Trimeric HA Binding: RLU,[3],119 RLU
same,Trimeric HA Binding: RLU,[4],169 RLU
same,Trimeric HA Binding: RLU,[2],12900 RLU

# — patent US20150086555A1
